Paper PMC8501996

Target: hRPA1;hRPA2;hRPA3 (Homo sapiens;Homo sapiens;Homo sapiens, UniProt P27694;P15927;P35244 1-616;1-270;1-121, ||)
Assay: FRET kinetics

hRPA1;hRPA2;hRPA3, sequence (P27694 whole entry, chain 1 of 3): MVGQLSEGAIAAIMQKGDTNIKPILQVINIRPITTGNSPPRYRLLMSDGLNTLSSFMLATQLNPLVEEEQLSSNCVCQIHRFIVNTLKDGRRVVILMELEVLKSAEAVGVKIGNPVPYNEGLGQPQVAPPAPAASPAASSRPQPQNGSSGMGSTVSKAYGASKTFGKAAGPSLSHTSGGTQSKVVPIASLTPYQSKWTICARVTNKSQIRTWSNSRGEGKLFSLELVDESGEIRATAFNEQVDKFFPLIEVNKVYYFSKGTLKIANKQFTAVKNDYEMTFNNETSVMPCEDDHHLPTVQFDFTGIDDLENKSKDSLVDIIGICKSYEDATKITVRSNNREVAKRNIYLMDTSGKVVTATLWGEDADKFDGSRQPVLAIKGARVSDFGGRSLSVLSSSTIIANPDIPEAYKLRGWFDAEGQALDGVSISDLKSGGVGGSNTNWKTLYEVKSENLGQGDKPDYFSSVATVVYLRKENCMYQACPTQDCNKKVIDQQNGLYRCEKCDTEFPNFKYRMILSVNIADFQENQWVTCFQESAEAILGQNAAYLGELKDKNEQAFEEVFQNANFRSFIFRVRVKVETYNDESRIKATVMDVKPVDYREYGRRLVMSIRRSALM
hRPA1;hRPA2;hRPA3, sequence (P15927 whole entry, chain 2 of 3): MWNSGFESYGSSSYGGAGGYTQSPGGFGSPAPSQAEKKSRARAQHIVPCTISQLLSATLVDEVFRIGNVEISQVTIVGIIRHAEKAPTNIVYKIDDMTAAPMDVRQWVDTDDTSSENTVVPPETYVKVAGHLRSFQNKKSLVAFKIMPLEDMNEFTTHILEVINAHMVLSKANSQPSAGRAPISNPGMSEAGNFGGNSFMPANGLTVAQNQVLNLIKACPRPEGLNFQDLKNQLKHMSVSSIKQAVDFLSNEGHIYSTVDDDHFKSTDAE
hRPA1;hRPA2;hRPA3, sequence (P35244 whole entry, chain 3 of 3): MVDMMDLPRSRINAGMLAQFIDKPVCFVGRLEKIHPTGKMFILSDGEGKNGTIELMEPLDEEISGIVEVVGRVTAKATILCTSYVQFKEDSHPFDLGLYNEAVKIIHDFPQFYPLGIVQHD

B1: H69-Q2 (structured_DNA)
DNA: GGGTTAGGGTTAGGGTTAGGGTTAGGGTTAGGGTTAGGGTTAGGGTTAGGGTTAGGGTTAGGGTTAGGG
modifications: 6FAM-dT in 4th repeat (T23); TAMRA-dT in 8th repeat (T47)
binding result: binds
